± gives the uncertainty stated by the source.

A short description of this data set: abundance fitness (aPCA) (normalised: wild type 0, dead -1); higher = more abundant; growth selection in yeast, the domain comes from the species named. The note with it: Homo sapiens.
Substance “BAG family molecular chaperone regulator 3 H42E, O95817” yielded an abundance fitness of -0.738 ± 0.33. The substance “BAG family molecular chaperone regulator 3 H42G, O95817” gave an abundance fitness of -0.65 ± 0.09.

For “BAG family molecular chaperone regulator 3 H42I, O95817”, the abundance fitness was -0.625 ± 0.29. The same measure for “BAG family molecular chaperone regulator 3 H42K, O95817”: -0.942 ± 0.42; for “BAG family molecular chaperone regulator 3 H42L, O95817”: -0.641 ± 0.18; for “BAG family molecular chaperone regulator 3 H42M, O95817”: -0.37 ± 0.11. The same measure for “BAG family molecular chaperone regulator 3 H42P, O95817”: -0.788 ± 0.13. Regarding “BAG family molecular chaperone regulator 3 H42R, O95817”, the abundance fitness was -0.448 ± 0.18. The same measure for “BAG family molecular chaperone regulator 3 H42S, O95817”: -0.678 ± 0.25; for “BAG family molecular chaperone regulator 3 H42T, O95817”: -0.55 ± 0.21. The same measure for “BAG family molecular chaperone regulator 3 H42W, O95817”: -0.886 ± 0.14. For the substance “BAG family molecular chaperone regulator 3 H42Y, O95817”, the abundance fitness is -0.55 ± 0.088. For the substance “BAG family molecular chaperone regulator 3 I28A, O95817”, the abundance fitness was -0.423 ± 0.2. For the substance “BAG family molecular chaperone regulator 3 I28C, O95817”, the abundance fitness was -0.375 ± 0.22.

In the case of “BAG family molecular chaperone regulator 3 I28D, O95817”, the abundance fitness was -0.503 ± 0.18.

For “BAG family molecular chaperone regulator 3 I28E, O95817”, the abundance fitness came to 0.316 ± 0.11. Regarding “BAG family molecular chaperone regulator 3 I28G, O95817”, the abundance fitness is -0.088 ± 0.08. In the case of “BAG family molecular chaperone regulator 3 I28L, O95817”, the abundance fitness is -0.444 ± 0.17. Under “BAG family molecular chaperone regulator 3 I28M, O95817” stands 0.248 ± 0.14; under “BAG family molecular chaperone regulator 3 I28N, O95817”, 0.206 ± 0.3; under “BAG family molecular chaperone regulator 3 I28P, O95817”, -0.713 ± 0.28. Turning to “BAG family molecular chaperone regulator 3 I28Q, O95817”, the abundance fitness is -0.307 ± 0.22. Under “BAG family molecular chaperone regulator 3 I28R, O95817” stands 0.171 ± 0.066; under “BAG family molecular chaperone regulator 3 I28S, O95817”, 0.183 ± 0.083; under “BAG family molecular chaperone regulator 3 I28T, O95817”, -0.636 ± 0.29. The same measure for “BAG family molecular chaperone regulator 3 I28V, O95817”: 0.068 ± 0.1. With “BAG family molecular chaperone regulator 3 I28Y, O95817”, the abundance fitness was -0.19 ± 0.3. As to “BAG family molecular chaperone regulator 3 I30A, O95817”, the abundance fitness was -0.011 ± 0.11. With “BAG family molecular chaperone regulator 3 I30C, O95817”, the abundance fitness turned out to be 0.028 ± 0.16. “BAG family molecular chaperone regulator 3 I30D, O95817” displayed an abundance fitness of -0.389 ± 0.14.

For the substance “BAG family molecular chaperone regulator 3 I30E, O95817”, the abundance fitness was -0.226 ± 0.079. Under “BAG family molecular chaperone regulator 3 I30G, O95817” stands -0.44 ± 0.087; under “BAG family molecular chaperone regulator 3 I30H, O95817”, -0.114 ± 0.074.

For the substance “BAG family molecular chaperone regulator 3 I30K, O95817”, the abundance fitness is -0.087 ± 0.2. The same measure for “BAG family molecular chaperone regulator 3 I30L, O95817”: 0.249 ± 0.091.

Substance “BAG family molecular chaperone regulator 3 I30N, O95817” gave an abundance fitness of -0.166 ± 0.28. “BAG family molecular chaperone regulator 3 I30P, O95817” yielded an abundance fitness of -0.661 ± 0.084. The same measure for “BAG family molecular chaperone regulator 3 I30R, O95817”: -0.133 ± 0.084; for “BAG family molecular chaperone regulator 3 I30S, O95817”: -0.191 ± 0.077; for “BAG family molecular chaperone regulator 3 I30T, O95817”: -0.32 ± 0.2. For the substance “BAG family molecular chaperone regulator 3 I30V, O95817”, the abundance fitness came to 0.207 ± 0.092.

“BAG family molecular chaperone regulator 3 I30W, O95817”: the abundance fitness is 0.13 ± 0.12. “BAG family molecular chaperone regulator 3 K29A, O95817” had an abundance fitness of -0.37 ± 0.12. On to “BAG family molecular chaperone regulator 3 K29C, O95817”, for which the abundance fitness was -0.369 ± 0.24. As to “BAG family molecular chaperone regulator 3 K29E, O95817”, the abundance fitness was -0.791 ± 0.42. The same measure for “BAG family molecular chaperone regulator 3 K29F, O95817”: -0.719 ± 0.45. “BAG family molecular chaperone regulator 3 K29G, O95817” displayed an abundance fitness of -0.531 ± 0.083. The same measure for “BAG family molecular chaperone regulator 3 K29H, O95817”: -0.686 ± 0.16; for “BAG family molecular chaperone regulator 3 K29I, O95817”: -0.758 ± 0.38. “BAG family molecular chaperone regulator 3 K29L, O95817” had an abundance fitness of -0.376 ± 0.091. Under “BAG family molecular chaperone regulator 3 K29M, O95817” stands -0.23 ± 0.21; under “BAG family molecular chaperone regulator 3 K29N, O95817”, -0.75 ± 0.43. “BAG family molecular chaperone regulator 3 K29P, O95817”: the abundance fitness is -0.598 ± 0.26. In turn, “BAG family molecular chaperone regulator 3 K29Q, O95817” displayed an abundance fitness of -0.711 ± 0.28. Substance “BAG family molecular chaperone regulator 3 K29R, O95817” yielded an abundance fitness of -0.17 ± 0.066.

The substance “BAG family molecular chaperone regulator 3 K29S, O95817” yielded an abundance fitness of -0.313 ± 0.11.

The substance “BAG family molecular chaperone regulator 3 K29T, O95817” returned an abundance fitness of -0.212 ± 0.16.

“BAG family molecular chaperone regulator 3 K29V, O95817” displayed an abundance fitness of -0.266 ± 0.11. Under “BAG family molecular chaperone regulator 3 K29W, O95817” stands -0.754 ± 0.29. Turning to “BAG family molecular chaperone regulator 3 L22A, O95817”, the abundance fitness was -0.362 ± 0.17. “BAG family molecular chaperone regulator 3 L22C, O95817” had an abundance fitness of 0.225 ± 0.16. Under “BAG family molecular chaperone regulator 3 L22D, O95817” stands -0.753 ± 0.42; under “BAG family molecular chaperone regulator 3 L22F, O95817”, -0.069 ± 0.18. Under “BAG family molecular chaperone regulator 3 L22G, O95817” stands -0.144 ± 0.13; under “BAG family molecular chaperone regulator 3 L22H, O95817”, -0.796 ± 0.37.

“BAG family molecular chaperone regulator 3 L22I, O95817”: the abundance fitness is -0.271 ± 0.15. In the case of “BAG family molecular chaperone regulator 3 L22M, O95817”, the abundance fitness turned out to be 0.023 ± 0.17. Under “BAG family molecular chaperone regulator 3 L22N, O95817” stands -0.67 ± 0.34; under “BAG family molecular chaperone regulator 3 L22P, O95817”, -0.477 ± 0.23. With “BAG family molecular chaperone regulator 3 L22Q, O95817”, the abundance fitness was -0.226 ± 0.095.

On to “BAG family molecular chaperone regulator 3 L22S, O95817”, for which the abundance fitness is -0.574 ± 0.11.

For “BAG family molecular chaperone regulator 3 L22T, O95817”, the abundance fitness stood at 0.047 ± 0.17. As to “BAG family molecular chaperone regulator 3 L22V, O95817”, the abundance fitness was found to be 0.078 ± 0.068. “BAG family molecular chaperone regulator 3 L22W, O95817” came in with an abundance fitness of -0.464 ± 0.083. Under “BAG family molecular chaperone regulator 3 N16A, O95817” stands 0.423 ± 0.079; under “BAG family molecular chaperone regulator 3 N16C, O95817”, 0.113 ± 0.14; under “BAG family molecular chaperone regulator 3 N16D, O95817”, 0.008 ± 0.07. “BAG family molecular chaperone regulator 3 N16E, O95817” yielded an abundance fitness of 0.658 ± 0.11. Under “BAG family molecular chaperone regulator 3 N16F, O95817” stands -0.219 ± 0.24. The same measure for “BAG family molecular chaperone regulator 3 N16H, O95817”: 0.094 ± 0.13; for “BAG family molecular chaperone regulator 3 N16I, O95817”: 0.113 ± 0.19.
